Key:
[1] = molecular target: SspB-C-term (bacteriophage T7) (UniProt P0AFZ3); test: cell-based or functional assay
[2] = molecular target: FKBP-C-term (bacteriophage T7) (UniProt P62942); test: cell-based or functional assay
C-ZB [3] = molecular target: T1, C-ZB (bacteriophage T7, UniProt P00573 180-883); test: cell-based or functional assay
C-term RNAP (WT) = molecular target: T2, C-term RNAP (WT) (bacteriophage T7, UniProt P00573 180-883); test: E. coli luciferase transcription reporter (split T7 RNAP complementation)
T2 construct: C-terminal half of T7 RNAP split at position 179, without a fusion partner; expressed in E. coli; A start codon for the unfused half is not described; also called C-terminal split RNAP; C-terminal T7 RNAP
T2 sequence (P00573 180-883 limits assumed): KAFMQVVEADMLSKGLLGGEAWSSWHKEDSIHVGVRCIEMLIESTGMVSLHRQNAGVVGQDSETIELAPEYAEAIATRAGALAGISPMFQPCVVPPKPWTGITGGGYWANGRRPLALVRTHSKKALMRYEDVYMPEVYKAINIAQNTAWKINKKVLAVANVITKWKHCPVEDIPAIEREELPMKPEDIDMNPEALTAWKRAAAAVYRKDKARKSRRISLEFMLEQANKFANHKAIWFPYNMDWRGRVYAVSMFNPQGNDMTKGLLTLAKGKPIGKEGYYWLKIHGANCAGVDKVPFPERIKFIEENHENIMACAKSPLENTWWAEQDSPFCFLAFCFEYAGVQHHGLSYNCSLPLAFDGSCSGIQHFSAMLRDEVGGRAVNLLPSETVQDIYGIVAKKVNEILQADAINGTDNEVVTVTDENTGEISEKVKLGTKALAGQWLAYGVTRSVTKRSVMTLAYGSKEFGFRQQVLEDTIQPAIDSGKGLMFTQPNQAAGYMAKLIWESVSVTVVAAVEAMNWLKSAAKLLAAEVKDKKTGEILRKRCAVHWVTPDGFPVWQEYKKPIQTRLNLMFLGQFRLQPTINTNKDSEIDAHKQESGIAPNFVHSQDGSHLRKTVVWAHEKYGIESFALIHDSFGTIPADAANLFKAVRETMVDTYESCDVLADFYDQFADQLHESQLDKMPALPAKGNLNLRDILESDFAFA
Description: (§1) In vivo transcription assays of split RNAPs. N- and C-terminal halves of the RNAP were cloned into expression vectors, with the N-terminal RNAP under a constitutive promoter and the C-terminal RNAP under the arabinose-inducible promoter (Supplementary FIG. 1). S1030 cells (Carlson, et al., 2014) were transformed by electroporation with three plasmids: (i) an N-terminal RNAP expression plasmid, (ii) a C-terminal expression plasmid, and (iii) a reporter plasmid that encodes luciferase under control of the T7 promoter. The transformed cells were then plated onto agar plates (15 g/L in LB) with 50 μg/mL carbenicillin, 50 μg/mL spectinomycin, 33 μg/mL chloramphenicol, and 10 mM glucose. […] After growth with shaking at 37° C. for 2 h, 150 μL of each culture was transferred to a 96-well black wall, clear bottom plate (Costar), and luminescence and OD600 was measured on a Synergy H4 Hybrid Reader (BioTek). The data were analyzed by dividing the luminscence values by the background-corrected OD600 value, then subtracting out the background from the reporter vector alone. All values were then normalized to the wild-type split RNAP fused to ZA and ZB (data shown in FIG. 1d), which was assigned an arbitrary value of 100, allowing the values from each luminescence plot to be compared to one another. […]

C-ZB [4] = molecular target: T1, C-ZB; test: as above
Description: as §1

T1 sequence (P00573 180-883, tags or fused parts left off): as the sequence (P00573 180-883 limits assumed) above
FKBP-C-term (bacteriophage T7), sequence (P62942 1-108, tags or fused parts left off): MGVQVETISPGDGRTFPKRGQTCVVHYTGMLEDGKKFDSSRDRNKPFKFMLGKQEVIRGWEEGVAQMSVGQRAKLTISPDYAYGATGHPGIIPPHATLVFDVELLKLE
SspB-C-term (bacteriophage T7), sequence (P0AFZ3 6-116, tags or fused parts left off): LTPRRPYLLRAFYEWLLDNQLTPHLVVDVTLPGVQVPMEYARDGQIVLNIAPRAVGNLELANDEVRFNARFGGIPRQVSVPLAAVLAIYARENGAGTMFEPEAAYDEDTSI

N-term-iLID
transcriptional output (luciferase reporter, E. coli), blue LED light against dark [1]: 26 fold

N-term-FRB (from UniProt P42345 2021-2113)
RNA synthesis in the in vivo luciferase transcription reporter assay (E. coli), with rapamycin [2]: 340 fold

B1: N-ZA (other)
chain: MNTINIAKNDFSDIELAAIPFNTLADHYGERLAREQLALEHESYEMGEARFRKMFERQLKAGEVADNAAAKPLITTLLPKMIARINDWFEEVKAKRGKRPTAFQFLQEIKPEAVAYITIKTTLACLTSADNTTVQAVASAIGRAIEDEARFGRIRDLEAKHFKKNVEEQLNKRVGHVYKGGSGSGSSALKKELQANKKELAQLKWELQALKKELAQ
transcription (luciferase reporter under the T7 promoter, E. coli) (C-ZB [3]): ~5 fold

B2: N-term RNAP (WT) (enzyme)
chain: MNTINIAKNDFSDIELAAIPFNTLADHYGERLAREQLALEHESYEMGEARFRKMFERQLKAGEVADNAAAKPLITTLLPKMIARINDWFEEVKAKRGKRPTAFQFLQEIKPEAVAYITIKTTLACLTSADNTTVQAVASAIGRAIEDEARFGRIRDLEAKHFKKNVEEQLNKRVGHVYK
notes: N-terminal half of T7 RNAP split at position 179, without a fusion partner; expressed in E. coli; also called N-terminal split RNAP; N-terminal T7 RNAP
binding result (C-term RNAP (WT)): binds | binding result (C-ZB [4]): binds

Source: patent US20200332371A1 (UNIVERSITY OF CHICAGO, published 2020)
